Drawing on publication PMC11335232, this text covers binding for one sequence.

The target in this data set is T1, CTCF recombinant full-length (OriGene) (UniProt P49711).
T1 sequence: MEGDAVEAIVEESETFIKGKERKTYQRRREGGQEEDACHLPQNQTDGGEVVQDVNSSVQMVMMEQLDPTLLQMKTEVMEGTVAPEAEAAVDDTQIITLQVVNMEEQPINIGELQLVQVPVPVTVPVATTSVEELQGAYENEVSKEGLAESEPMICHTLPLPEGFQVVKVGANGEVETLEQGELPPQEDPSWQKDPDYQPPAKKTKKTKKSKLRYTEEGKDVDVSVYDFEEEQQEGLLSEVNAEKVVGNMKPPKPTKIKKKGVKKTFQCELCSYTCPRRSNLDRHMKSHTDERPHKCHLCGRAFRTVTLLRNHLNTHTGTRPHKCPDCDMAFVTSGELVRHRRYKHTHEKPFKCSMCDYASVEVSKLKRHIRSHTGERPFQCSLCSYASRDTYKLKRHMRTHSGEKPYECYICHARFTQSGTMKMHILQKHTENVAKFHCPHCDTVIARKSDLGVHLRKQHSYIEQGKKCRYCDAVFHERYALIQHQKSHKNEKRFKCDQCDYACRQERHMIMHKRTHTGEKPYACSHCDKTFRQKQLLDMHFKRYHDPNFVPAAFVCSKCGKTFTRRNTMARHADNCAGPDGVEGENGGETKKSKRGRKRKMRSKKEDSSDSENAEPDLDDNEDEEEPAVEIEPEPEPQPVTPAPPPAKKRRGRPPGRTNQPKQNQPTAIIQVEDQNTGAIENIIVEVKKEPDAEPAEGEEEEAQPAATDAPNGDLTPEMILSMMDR
In words: EMSA, competition. As to conditions: LightShift Chemiluminescent RNA EMSA Kit (20158) and Pierce Magnetic RNA-Protein Pull-down Kit (20164) protocols; buffer, salt, pH and temperature not stated. (Mobility shift assays separate free from complexed probe on a gel.)

On to “TTTACAGCGGTGAGGACCACCAAGGGGAGCTAAAATTCGAATGTAGGGAACAGACGATTAACAAGTTAGTTTCAGAATGAAAGACTCGAGTGTAAGAATTCAATGGGATAATTCCTGTAAAGCGTTTAGTACAGTAAAGAGCGAAGGGAAATTCTGAATAAAAGGCAGACACTATTTTAGGATTTGGCCTTCCCCG (double strand) [RAB5A-set3 promoter DNA probe (196 bp)]”, for which the binding result is recorded as “binds”.
